Data published in patent US20170362301A1 (Janssen / Centocor, published 2017).

B1: 83v2His6-cys, NEM conjugate (designed binder)
chain: MLPAPKNLVVSEVTEDSARLSWDDPWAFYESFLIQYQESEKVGEAIVLTVPGSERSYDLTGLKPGTEYTVSIYGVHNVYKDTNMRGLPLSAIFTTGGHHHHHHC
modifications: NEM on the C-terminal Cys
notes: also called P54AR4-83v2-cys; P54AR4-83v2 parent
B2: ECB5 (designed binder)
chain: MLPAPKNLVVSEVTEDSARLSWADPHGFYDSFLIQYQESEKVGEAIVLTVPGSERSYDLTGLKPGTEYTVSIYGVHNVYKDTNMRGLPLSAIFTTGGGGSGGGGSGGGGSGGGGSMLPAPKNLVVSRVTEDSARLSWTAPDAAFDSFWIRYFEFLGSGEAIVLTVPGSERSYDLTGLKPGTEYVVNIMGVKGGKISPPLSAIFTT

Columns and labels:
[1] = target: T1, EGFR (form in the assay not stated) (human, UniProt P00533 25-645, limits assumed); test: ELISA, NEM conjugate 10 nM (the reference itself)
[2] = target: T1, EGFR (form in the assay not stated); test: ELISA, NEM conjugate 100 nM (the reference itself)
[3] = target: T1, EGFR (form in the assay not stated); test: ELISA, NEM conjugate 500 nM (the reference itself)
[4] = target: EGFR on cells (A431, NCI-H292, NCI-H322, NCI-H441) (human, UniProt P00533 25-1210); test: cell-based or functional assay

Binder	binding ratio vs parent P54AR4-83v2 [1] [ratio]	binding ratio vs parent P54AR4-83v2 [2] [ratio]	binding ratio vs parent P54AR4-83v2 [3] [ratio]	fold decrease of IC50 for inhibition of EGFR phosphorylation in NCI-H441 cells against monospecific P53A1R5-17v2 [4] [fold]
B1	1	1	1	–
B2	–	–	–	30
